target: T1, recombinant Fc fusion protein composed of the Sushi domain 1 and 2 of human CD46 (human, UniProt P15529 35-159); assay: phage and yeast display selection and FACS screening with recombinant CD46-Fc fusion
T1 construct: domain: Sushi domain 1 and 2; Produced in HEK293 cells, purified by protein A; also called CD46-Fc fusion; recombinant CD46-Fc fusion protein; not shown: Fc part
T1 sequence (looked up): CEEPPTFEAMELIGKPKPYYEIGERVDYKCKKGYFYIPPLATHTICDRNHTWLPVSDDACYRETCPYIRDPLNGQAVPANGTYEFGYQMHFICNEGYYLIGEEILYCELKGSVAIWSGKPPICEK
Source text: To identify novel anti-human CD46 antibodies, a recombinant Fc fusion protein composed of the Sushi domain 1 and 2 of human CD46 was created. As complement elements bind predominantly to domain 3 and 4, the choice of domain 1 and 2 minimize selection of antibodies that could potently interfere with normal complement function. This CD46-Fc fusion was produced and purified from transfected HEK293 cells by protein A affinity chromatography. For human antibody selection, a 5×10⁹ member phagemid display library was created using cDNAs pooled from peripheral blood mononuclear cells of 426 healthy human donors, and the library was selected the recombinant CD46-Fc fusion protein. Following three rounds of selection, binding phagemid were screened by FACS and sequenced. In parallel, an alternatively strategy was employed that involve first selecting the library on live tumor cells followed by transferring the output from round 1 phagemid selection into a yeast surface display vector, and then FACS-based selection using low concentration ligands to enrich high affinity binders to the recombinant CD46-Fc fusion protein. The resulting antibodies bind with high affinity to both live tumor cells and the recombinant human CD46 protein.

Row | Binder | binding result
1 | YS3 (antibody, V domains shown, Human scFv from phage/yeast display, converted into full human IgG1) VH: QVQLQESGGGLVQPGGSLRLSCAASGFTFSSYWMSWVRQAPGKGLEWVADIKQDGSEKYYVDSVKGRFTISGDNAKNSLYLQMNSLRAEDTAVYYCAKDVGSTAINYVRAYTWFDPWGQGTLVTVSS VL: not shown | binds
2 | YS7 (antibody, V domains shown, Human scFv from phage/yeast display, converted into full human IgG1) VH: QVQLVQSGGGVVQPGRSLRLSCAASGFTFSSYAMHWVRQAPGKGLEWVAVISYDGSNKYYADSVKGRFTISRDTSTNTLYLQMNSLRADDTAVYYCGRESSGSPGVWGQGTTVTVSS VL: SYVLTQDPAVSVALGQTVRITCQGDSLRSYYASWYQQKPGQAPVLVIYGKNNRPSGIPDRFSGSSSGNTASLTITGAQAEDEADYYCNSRDSSGNQFGGGTKLTVL | binds
3 | SB1HGNY (antibody, V domains shown, Human scFv from phage/yeast display, converted into full human IgG1) VH: QVQLQQSGGGVVQPGRSLRLSCAASGFTFSSYAMHWVRQAPGKGLEWVAFIRSDGSKKYYADSVKGRFTISRDNSKNTLYLQMNSLRAEDTAVYYCARHGNYFDSWGQGTLVTVSS VL: DIQMTQSPSFLSASVGDRVTITCRASQGISSYLAWYQQKPGKAPKLLIYAASTLQSGVPSSFSGSGSGTEFTLTISSLQPEDFATYYCQQLASYPLTFGGGTKVDIK | binds
4 | YS11 (antibody, V domains shown, Human scFv from phage/yeast display, converted into full human IgG1) VH: QVQLVESGGGLVQPGGSLGLSCAASGFTFSNYWMSWVRQAPGKGLEWVANVRQDGGQKYYVDSVKGRFTISRDNAKNSLYLQMNSLRTEDTAVYFCVSQRNSGEHDYWGQGTLVTVSS VL: SELTQDPAVSVALGQTVRITCQGDSLRSYYASWYQQKPGQAPVLVIYGENSRPSGIPDRFSGSSSGNTASLTITGAQAEDEADYYCNSWDSSGNHVVFGGGTKLTVL | binds
5 | YS4 (antibody, V domains shown, Human scFv from phage/yeast display, converted into full human IgG1) VH: QVQLQESGGGLVQPGGSLRLSCAASGFTFSNYAMSWVRQAPGKGLEWVSTISGSGSSTFYVDSVKGRFTISRDNSKNTLYLQMNSLRAEDTAVYYCAQGLYSSGWANWFDPRGQGTLVTVSS VL: KIVLTQSPSSLSASVGDTVTIACRASRDIRNDLAWYQQKPGKAPKLLIYGASSLQSGVPSRFSGSGSGTEFILTISSLQPEDFATYYCHRLNSYPLTFGGGTKVDIK | binds
6 | 3G7RY (aka 3G8) (antibody, V domains shown, Human scFv from phage/yeast display, converted into full human IgG1; elsewhere 3G8 is 3G7RY) VH: EVQLVESGGGLVQPGGSLRLSCAASGFTFSDYYMSWIRQAPGKGLEWVSYISSSGSTIYYADSVKGRFTISRDNSKNTLYLQMNSLRAEDTAVYYCARDYGRIAAAGRRYWGQGTLVTVSS VL: QSALTQPPSASATPGQRVTISCSGRTSNIGSNHVYWYQQLPGTAPKLLIYRNNQRPSGVPDRFSGSKSGTSASLAISGLRSEDEADYYCATWDDSLSGEVFGGGTKLTVL | binds
7 | 3G7HY (antibody, V domains shown, Human scFv from phage/yeast display, converted into full human IgG1) VH: EVQLVESGGGLVQPGGSLRLSCAASGFTFSDYYMSWIRQAPGKGLEWVSYISSSGSTIYYADSVKGRFTISRDNSKNTLYLQMNSLRAEDTAVYYCARDYGRIAAAGRHYWGQGTLVTVSS VL: not shown | binds
8 | 3G7NY (antibody, V domains shown, Human scFv from phage/yeast display, converted into full human IgG1) VH: EVQLVESGGGLVQPGGSLRLSCAASGFTFSDYYMSWIRQAPGKGLEWVSYISSSGSTIYYADSVKGRFTISRDNSKNTLYLQMNSLRAEDTAVYYCARDYGRIAAAGRNYWGQGTLVTVSS VL: DIVMTQSPLSLPVTPGEPASISCRSSQSLLHSNGYDYLDWYLQKPGQSPQLLIYLGSNRASGVPDRFSGSGSGTDFTLKISRVETEDVGIYYCMQGLQTPSFGQGTKLEIK | binds
9 | YS1 (antibody, V domains shown, Human scFv from phage/yeast display, converted into full human IgG1) VH: EVQLVESGGGLVQPGGSLRLSCAASGFTFSDYYMSWIRQAPGKGLEWVSYISSSGSTIYYADSVKGRFTISRDNSKNTLYLQMNSLRAEDTAVYYCARDYGRIAAAGRHYWGQGTLVTVSS VL: SSELTQDPAVSVALGQTVRITCQGDTLSTYYANWYQQKPGQAPVLVIYGKNNRPSGIPDRFSGSSSGNTASLTITGAQAEDEADYYCHSRDISGNYLFASGTKLTVL | binds
10 | YS6 (antibody, V domains shown, Human scFv from phage/yeast display, converted into full human IgG1) VH: QVQLQESGGGVVRPGGSLRLSCAASGFTFSDYYMSWIRQAPGKGLEWVSYISSSGSTIYYADSVKGRFTISRDNSKNTLYLQMNSLRAEDTAVYYCARDYGRIAAAGRHYWGQGTLVTVSS VL: SSELTQDPAVSVALGQTVRITCQGDSLRSYYASWYQQKPGQAPVLVIYGKNNRPSGIPDRFSGSSSGNTASLTITGAQAEDEADYYCNSRDSSGTHLEVFGGGTKVTVL | binds
11 | 3G7 (antibody, V domains shown, Human scFv from phage/yeast display, converted into full human IgG1) VH: QVQLQESGGGVVRPGGSLRLSCAASGFTFSDYYMSWIRQAPGKGLEWVSYISSSGSTIYYADSVKGRFTISRDNSKNTLYLQMNSLRAEDTAVYYCARDYGRIAAAGRHYWGQGTLVTVSS VL: SSELTQDPAVSVALGQTVRITCQGDSLRSYYASWYQQKPGQAPVPVIYGKNNRPSGIPDRFSGSSSGNTASLTITGAQAEDEADYYCNSRDSSSTHRGVFGGGTKLTVL | binds
12 | SB2 (antibody, V domains shown, Human scFv from phage/yeast display, converted into full human IgG1) VH: EVQLVESGGGLVKPGGSLRLSCAASGFTFSDYYMSWIRQAPGKGLEWVSYISSSGSSIYYADSVKGRFTISRDNAKNSLYLQMNSLKAEDTAVYYCARDITDVVGVSFDYWGQGTLVTVSS VL: DIQLTQSPSSLSASVGDRVTITCRASRSISTYLSWYQQKPGKAPKLLIYDASRLQNGVPSRFSGSGSDTDFTLTISSLQPEDFATYFCQQSYNPPWTFGQGTKLEIK | binds
13 | YS9 (antibody, V domains shown, Human scFv from phage/yeast display, converted into full human IgG1) VH: QVQLVESGGGLIQPGGSLRLSCAASGFTVSSNYMSWVRQAPGKGLEWVSVIYTDGSTYYADSVKGRFTISRDNSKNTLYLQMNSLRAEDTAIYYCARDRGTSGYDWAWFDLWGQGTLVTVSS VL: SSELTQDPAVSVALGQTVRITCQGDSLRTYYASWYQQRPGQAPILVLYGKNNRPSGIPDRFSGSSSGNTASLTITGAQAEDEADYYCNSRDSSGNHVVFGGGTKLTVL | binds
14 | YS5F (antibody, V domains shown, Human scFv from phage/yeast display, converted into full human IgG1) VH: QVQLVQSGGGVVQPGRSLRLACAASGFTVNNYAMHWVRQAPGKGLEWVAVISYDGNNKYYADSVKGRFTISRDNSKNTLYLQMNSLRAEDTAVYYCAKGGGYFDLWGRGTLVTVSS VL: QSVLTQPPSVSGAPGQRVTISCTGSSSNIGAGYDVHWYQQLPGTAPKLLIYGNNNRPSGVPDRFSGSKSGTSASLAITGLQAEDEADYYCSSYTSGTWLFGGGTKLTVL | binds
15 | YS8 (antibody, V domains shown, Human scFv from phage/yeast display, converted into full human IgG1) VH: QVQLQESGGGVVQPGRSLRLSCAASGFTFSSYGMHWVRQAPGKGLEWVAVISYDGSNKYYADSVKGRFTISRDNSKNTLYLQMNSLRAEDTAVYYCAKVMGLAAAGLDAFDIWGQGTTVTVSS VL: NFMLTQPASLSGSPGQSITISCTGTSSDVGGYNYVSWYQQHPGYAPKLMIYDVSNRPSGVSNRFSGSKSGNTASLTISGLQAEDEADYYCSSYTSSSTPWVFGGGTKLTVL | binds
16 | 2C8 (antibody, V domains shown, Human scFv from phage/yeast display, converted into full human IgG1) VH: EVQLVESGGGVVQPGRSLRLSCAASGFTFSSYGMHWVRQAPGKGLEWVAVISYDGSNKYYADSVKGRFTISRDNSKNTLYLQMNSLRAEDTAEYYCAKVMGLAAAGLDAFDIWGQGTLVTVSS VL: QSALTQPASVSGSPGQSITISCTGTSSDVGGYNYVSWYQQHPGKAPKLMIYDVSNRPSGVSNRFSGSKSGNTASLTISGLQAEDEAYYYCSSYTSSSDPWVFGGGTQLTVL | binds
17 | UA8kappa (antibody, V domains shown, Human scFv from phage/yeast display, converted into full human IgG1; also called UASkappa) VH: EVQLVESGGGVVQPGRSLRLSCAASGFTFSSFGMHWVRRAPGKGLEWVAVISYDGSNQYYADSVKGRFTISRDNSKNTLYLQMNSLRAEDTAVYYCGSRPGGGYASGSTVAYWGQGTLVTVSS VL: NIQMTQSPSSLSASVGDRVTITCRAGQPISTYVNWYQHKPGKAPKLLIYGASNLQSGVPSRFSGGGSATDFTLTISSLQPEDFATYYCQQSYSSLLTFGDGTKVEIK | binds
18 | YS12 (antibody, V domains shown, Human scFv from phage/yeast display, converted into full human IgG1; also called YS12 IgG1) VH: QVQLVESGGGVVQPGRSLRLSCAASGFTFSTYGMHWVRQAPGKGLEWLSFISYDGDEKYYADSVKGRFTISRDNSKNTLYLQMNSLRAEDTAVYWCAKASGYGMGILDYWGQGTLVTVSS VL: SSELTQDPAVSVALGQTVRITCQGDSLRSYYVSWFQQKPGQAPVFVMYGQNNRPSGISERFSGSSSGNTASLIITGAQAEDEADYYCHSRDSSGTHLRVFGGGTKLTVL | binds
19 | YS10 (antibody, V domains shown, Human scFv from phage/yeast display, converted into full human IgG1) VH: QVQLQESGGGLVQPGGSLRLSCAASGFTFSSYAMSWVRQAPGKGLEWVSAISGSGGSTYYADSVKGRFTISRDNSKNTLYMQMNSLRAEDTAVYYCAKDRYYYGSGKDAFDIWGRGTMVTVSS VL: QSVLTQPASVSGSPGQSITISCTGTGSDVGSYNYVSWYQQNPGKAPKLMIYEVSNRPSGVSNRFSGSKSGNTASLTISGLQAEDEADYYCSSYTTSSTLVFGGGTKVTVL | binds

Source: patent US20170362330A1 (University of California, published 2017)
